US20170022287A1 (Chugai, published 2017)

B1: R2 (antibody, V domains shown)
VH: EVQLQESGPGLVKPSETLSLTCTVSGGSISSSSYYWGWIRQPPGKGLEWIGSIHYTGSTYYNPSLKSRVTISVDTSKNQFSLKLSSVTAADTAVYYCARLNPSIAARPGAFDIWGQGTMVTVSS
VL: QSVLTQPPSVSAAPGQKVTISCSGSSSNIANNFVSWFQQLPGTAPKLLIYDNNKRPSGIPDRFSGSKSGTSATLGITGLQTGDEADYYCGTWDRSLSAGVFGGGTKVTVL
notes: Naive library clone; Fab on phage in the phage ELISA
B2: R1 (antibody, V domains shown)
VH: EVQLVQSGAEVKKPGASVKVSCKASGYTFTSYYTHWVRQAPGQGLEWMGIINPSGGSTSYAQKFQGRVTMTRDTSTSTVYMELSSLRSEDTAVYYCARGAPEYSSSSDYWGQGTMVTVSS
VL: QSALTQPASVSGSPGQSITISCTGTSSDVGGYNYVSWYQQHPGKAPKLMIYDVSNRPSGVSNRFSGSKSGNTASLTISGLQAEDEADYYCSSYTSSSTRWVFGGGTKLTVL
notes: as for B1
B3: R18 (antibody, V domains shown)
VH: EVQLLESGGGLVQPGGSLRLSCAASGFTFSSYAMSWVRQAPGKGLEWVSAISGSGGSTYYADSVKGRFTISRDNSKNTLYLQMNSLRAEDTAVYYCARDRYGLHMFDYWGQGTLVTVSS
VL: DIQMTQSPSSLSASVGDRVTITCRASQSISSYLNWYQQKPGKAPKLLIYAASSLQSGVPSRFSGSGSGTDFTLTISSLQPEDFATYYCLQFNSFPLTFGGGTKVEIK
notes: Synthetic library clone; Fab on phage in the phage ELISA
B4: R17 (antibody, V domains shown)
VH: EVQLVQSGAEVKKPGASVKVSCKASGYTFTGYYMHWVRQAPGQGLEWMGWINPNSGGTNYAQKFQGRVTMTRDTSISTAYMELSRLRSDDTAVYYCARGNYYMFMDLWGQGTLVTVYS
VL: DIQMTQSPSSLSASVGDRVTITCRASQSISSYLNWYQQKPGKAPKLLIYAASSLQSGVPSRFSGSGSGTDFTLTISSLQPEDFATYYCLQFTSFPLTFGGGTKVEIK
notes: as for B3

Legend:
CRD1-3 [1] = target: T1, CRD1-3; experiment: ELISA, coated CD137-Fc protein 2 µg/mL, antibody 10 or 5 µg/mL; absorbance 620 nm divided by that of the uncoated well
T1 construct: also called fragmented human CD137-Fc fusion protein CRD1-3
T1 sequence (chain, as listed by the source limits assumed): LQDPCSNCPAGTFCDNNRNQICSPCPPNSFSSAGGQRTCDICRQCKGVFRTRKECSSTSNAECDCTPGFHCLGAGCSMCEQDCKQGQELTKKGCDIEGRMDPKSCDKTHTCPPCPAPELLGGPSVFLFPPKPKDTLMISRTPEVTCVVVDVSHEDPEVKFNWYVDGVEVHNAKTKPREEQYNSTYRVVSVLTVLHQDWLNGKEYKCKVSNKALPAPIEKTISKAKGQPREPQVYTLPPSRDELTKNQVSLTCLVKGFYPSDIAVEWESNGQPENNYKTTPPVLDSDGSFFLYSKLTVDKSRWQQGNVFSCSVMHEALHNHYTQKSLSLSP
Experimental: (§1) Fragmented human CD137-Fc fusion proteins were diluted to 2 μg/mL in an aqueous sodium carbonate solution adjusted to pH9.6. Fifty μL of a diluted fragmented human CD137-Fc fusion protein was added individually to each well of a Nunc MaxiSorp flat-bottom 96 well plate (Nunc). This was allowed to stand at 4° C. overnight or longer, and then the plate was allowed to stand at room temperature for one hour so that the plate has the same temperature as the room temperature. The solution containing the fragmented human CD137-Fc fusion protein was removed by tilting, and each well was washed three times with 300 μL of Wash buffer (TBS containing 0.1% Tween20, TaKaRa). Next, 150 μL of blocking buffer (TBS containing 2% BSA) was added to each well, and this was allowed to stand for one hour or more. The blocking buffer was removed by tilting, and each well was washed three times with Wash Buffer in a similar manner to an earlier step. Then, 50 μL of an antibody solution prepared in advance by dilution with TBS to 10 μg/mL or 5 μg/mL was added to each well. This was subjected to a speed of 600 rpm or so for one hour at room temperature to bind the antibody to the immobilized antigen. […] 100 μL of a secondary antibody solution produced by 1000-fold dilution with TBS containing 0.1% Tween20 was added to each well. For the secondary antibody, ANTIBODY ALKALINE PHOSPHATASE CONJUGATE HUMAN IMMUNOGLOBULIN ABSORBED Goat Anti-Human Kappa Alkaline Phosphate from BIOSOURCE was used in the case of antibodies carrying a Kappa chain, and Human Lambda Light Chain Antibody; Goat anti-Human Lambda Light Chain Antibody Alkaline Phosphatase Conjugated from BETHYL LABORATORIES INC. was used in the case of antibodies carrying a Lambda chain. […] Color development was performed using the BluePhos Microwell kit from KPL. After the chromogenic reaction was stopped using the AP stop solution from KPL, the absorbance was measured at 620 nm on an absorptiometer.

CRD1-2 [2] = target: T2, CRD1-2; experiment: as above
T2 construct: also called fragmented human CD137-Fc fusion protein CRD1-2
T2 sequence (chain, as listed by the source limits assumed): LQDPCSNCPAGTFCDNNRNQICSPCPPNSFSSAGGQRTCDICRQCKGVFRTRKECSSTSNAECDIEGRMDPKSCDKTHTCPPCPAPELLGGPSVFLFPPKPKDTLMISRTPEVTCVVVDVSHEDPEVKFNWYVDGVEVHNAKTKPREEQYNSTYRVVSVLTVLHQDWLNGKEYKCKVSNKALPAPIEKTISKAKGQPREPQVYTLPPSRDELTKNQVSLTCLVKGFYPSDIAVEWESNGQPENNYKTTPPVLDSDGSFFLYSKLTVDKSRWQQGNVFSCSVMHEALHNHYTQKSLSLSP
Experimental: as §1

CRD2-4 [3] = target: T3, CRD2-4; experiment: as above
T3 construct: also called fragmented human CD137-Fc fusion protein CRD2-4
T3 sequence (chain, as listed by the source limits assumed): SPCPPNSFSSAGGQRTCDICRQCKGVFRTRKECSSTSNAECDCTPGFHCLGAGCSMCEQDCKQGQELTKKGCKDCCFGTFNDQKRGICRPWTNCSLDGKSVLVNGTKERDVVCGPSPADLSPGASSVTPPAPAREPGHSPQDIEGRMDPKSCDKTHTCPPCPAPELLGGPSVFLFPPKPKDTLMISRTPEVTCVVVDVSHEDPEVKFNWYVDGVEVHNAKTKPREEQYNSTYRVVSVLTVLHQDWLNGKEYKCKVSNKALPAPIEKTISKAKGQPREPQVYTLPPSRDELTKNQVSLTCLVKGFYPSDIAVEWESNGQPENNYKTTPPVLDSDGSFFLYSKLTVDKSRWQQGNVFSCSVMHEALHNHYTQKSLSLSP
Experimental: as §1

CRD1 [4] = target: T4, CRD1; experiment: as above
T4 construct: also called fragmented human CD137-Fc fusion protein CRD1
T4 sequence (chain, as listed by the source limits assumed): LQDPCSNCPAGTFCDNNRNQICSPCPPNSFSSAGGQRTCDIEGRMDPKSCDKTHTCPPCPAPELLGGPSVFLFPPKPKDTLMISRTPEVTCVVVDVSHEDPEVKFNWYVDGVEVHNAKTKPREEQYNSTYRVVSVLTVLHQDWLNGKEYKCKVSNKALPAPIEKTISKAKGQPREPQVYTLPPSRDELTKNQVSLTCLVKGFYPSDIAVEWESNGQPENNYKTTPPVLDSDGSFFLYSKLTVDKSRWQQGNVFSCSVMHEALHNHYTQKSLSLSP
Experimental: as §1

CRD3-4 [5] = target: T5, CRD3-4; experiment: as above
T5 construct: also called fragmented human CD137-Fc fusion protein CRD3-4
T5 sequence (chain, as listed by the source limits assumed): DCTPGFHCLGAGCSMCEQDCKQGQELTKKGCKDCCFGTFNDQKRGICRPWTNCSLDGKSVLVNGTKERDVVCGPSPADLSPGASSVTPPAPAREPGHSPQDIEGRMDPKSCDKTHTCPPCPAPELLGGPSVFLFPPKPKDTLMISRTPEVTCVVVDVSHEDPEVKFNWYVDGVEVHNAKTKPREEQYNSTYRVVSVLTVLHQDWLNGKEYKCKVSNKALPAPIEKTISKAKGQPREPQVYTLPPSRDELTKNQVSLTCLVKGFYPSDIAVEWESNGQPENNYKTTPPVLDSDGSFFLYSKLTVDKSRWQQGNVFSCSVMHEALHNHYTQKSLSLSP
Experimental: as §1

CRD2-3 [6] = target: T6, CRD2-3; experiment: as above
T6 construct: also called fragmented human CD137-Fc fusion protein CRD2-3
T6 sequence (chain, as listed by the source limits assumed): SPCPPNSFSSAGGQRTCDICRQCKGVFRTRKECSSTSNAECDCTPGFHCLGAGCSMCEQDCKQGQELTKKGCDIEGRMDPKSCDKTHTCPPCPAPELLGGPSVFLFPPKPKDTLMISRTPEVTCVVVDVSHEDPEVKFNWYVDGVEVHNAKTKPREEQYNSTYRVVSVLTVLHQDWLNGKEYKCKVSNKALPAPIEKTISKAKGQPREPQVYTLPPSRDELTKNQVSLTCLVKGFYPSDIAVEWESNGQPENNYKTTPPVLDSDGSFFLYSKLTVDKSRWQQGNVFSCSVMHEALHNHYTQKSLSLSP
Experimental: as §1

CRD1-3 [7] = target: T1, CRD1-3; experiment: ELISA, coated CD137-Fc protein 2 µg/mL, antibody 10 or 5 µg/mL, absorbance 620 nm; Non (uncoated well) 0.202
Experimental: as §1

CRD1-2 [8] = target: T2, CRD1-2; experiment: as above
Experimental: as §1

CRD2-4 [9] = target: T3, CRD2-4; experiment: as above
Experimental: as §1

CRD1 [10] = target: T4, CRD1; experiment: as above
Experimental: as §1

CRD3-4 [11] = target: T5, CRD3-4; experiment: as above
Experimental: as §1

CRD2-3 [12] = target: T6, CRD2-3; experiment: as above
Experimental: as §1

[13] = target: full-length human CD137-Fc fusion protein (human); experiment: ELISA, coated CD137-Fc protein 2 µg/mL, antibody 10 or 5 µg/mL; absorbance 620 nm divided by that of the uncoated well
Sequence of full-length human CD137-Fc fusion protein (human) (chain, as listed by the source limits assumed): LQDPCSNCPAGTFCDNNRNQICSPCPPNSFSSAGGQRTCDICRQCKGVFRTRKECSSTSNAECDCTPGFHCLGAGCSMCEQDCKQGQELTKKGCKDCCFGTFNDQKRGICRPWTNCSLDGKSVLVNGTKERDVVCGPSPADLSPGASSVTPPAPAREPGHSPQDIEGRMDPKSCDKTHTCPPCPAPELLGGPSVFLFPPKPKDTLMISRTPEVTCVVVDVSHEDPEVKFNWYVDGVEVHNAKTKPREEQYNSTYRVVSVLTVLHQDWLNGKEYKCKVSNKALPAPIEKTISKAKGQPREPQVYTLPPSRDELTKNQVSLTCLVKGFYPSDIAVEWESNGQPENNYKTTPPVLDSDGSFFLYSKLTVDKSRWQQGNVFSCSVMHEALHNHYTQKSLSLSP
Experimental: as §1

CRD1-2 [14] = target: T2, CRD1-2; experiment: ELISA, coated CD137-Fc protein 2 µg/mL, antibody 10 or 5 µg/mL, absorbance 620 nm; Non (uncoated well) 0.065
Experimental: as §1

CRD2-4 [15] = target: T3, CRD2-4; experiment: as above
Experimental: as §1

CRD1 [16] = target: T4, CRD1; experiment: as above
Experimental: as §1

CRD3-4 [17] = target: T5, CRD3-4; experiment: as above
Experimental: as §1

[18] = target: full-length human CD137-Fc fusion protein (human); experiment: as above
Experimental: as §1

CRD2-3 [19] = target: T6, CRD2-3; experiment: as above
Experimental: as §1

CRD1-3 [20] = target: T1, CRD1-3; experiment: ELISA, coated CD137-Fc protein 2 µg/mL, antibody 10 or 5 µg/mL, absorbance 620 nm; Non (uncoated well) 0.3465
Experimental: as §1

CRD1-2 [21] = target: T2, CRD1-2; experiment: as above
Experimental: as §1

CRD2-4 [22] = target: T3, CRD2-4; experiment: as above
Experimental: as §1

CRD1 [23] = target: T4, CRD1; experiment: as above
Experimental: as §1

CRD3-4 [24] = target: T5, CRD3-4; experiment: as above
Experimental: as §1

[25] = target: full-length human CD137-Fc fusion protein (human); experiment: as above
Experimental: as §1

CRD2-3 [26] = target: T6, CRD2-3; experiment: as above
Experimental: as §1

CRD1-3 [27] = target: T1, CRD1-3; experiment: ELISA, coated CD137-Fc protein 2 µg/mL, antibody 10 or 5 µg/mL, absorbance 620 nm; Non (uncoated well) 0.166
Experimental: as §1

CRD1-2 [28] = target: T2, CRD1-2; experiment: as above
Experimental: as §1

CRD2-4 [29] = target: T3, CRD2-4; experiment: as above
Experimental: as §1

CRD1 [30] = target: T4, CRD1; experiment: as above
Experimental: as §1

CRD3-4 [31] = target: T5, CRD3-4; experiment: as above
Experimental: as §1

[32] = target: full-length human CD137-Fc fusion protein (human); experiment: as above
Experimental: as §1

CRD2-3 [33] = target: T6, CRD2-3; experiment: as above
Experimental: as §1

| Binder | Ratio with respect to Non-Coating (CRD1-3 [1]) | Ratio with respect to Non-Coating (CRD1-2 [2]) | Ratio with respect to Non-Coating (CRD2-4 [3]) | Ratio with respect to Non-Coating (CRD1 [4]) | Ratio with respect to Non-Coating (CRD3-4 [5]) | Ratio with respect to Non-Coating (CRD2-3 [6]) | Ratio with respect to Non-Coating [13] | also measured |
| --- | --- | --- | --- | --- | --- | --- | --- | --- |
| B1 | 1.1 | 1 | 0.7 | 1.1 | 0.5 | 0.9 |  | ELISA color development level (CRD1-3 [7]): 0.226; ELISA color development level (CRD1-2 [8]): 0.202; ELISA color development level (CRD2-4 [9]): 0.15; ELISA color development level (CRD1 [10]): 0.226; ELISA color development level (CRD3-4 [11]): 0.11; ELISA color development level (CRD2-3 [12]): 0.19 |
| B2 |  | 13.3 | 1.4 | 1.9 | 1.3 | 1.8 | 27.6 | ELISA color development level (CRD1-2 [14]): 0.865; ELISA color development level (CRD2-4 [15]): 0.0935; ELISA color development level (CRD1 [16]): 0.123; ELISA color development level (CRD3-4 [17]): 0.0875; ELISA color development level [18]: 1.79; ELISA color development level (CRD2-3 [19]): 0.117 |
| B3 | 6.6 | 1.2 | 6.6 | 1.2 | 7.7 | 7.2 | 5.8 | ELISA color development level (CRD1-3 [20]): 2.29; ELISA color development level (CRD1-2 [21]): 0.419; ELISA color development level (CRD2-4 [22]): 2.27; ELISA color development level (CRD1 [23]): 0.4; ELISA color development level (CRD3-4 [24]): 2.65; ELISA color development level [25]: 2.03; ELISA color development level (CRD2-3 [26]): 2.49 |
| B4 | 12.4 | 1 | 11.6 | 1.2 | 14.9 | 14.7 | 8.1 | ELISA color development level (CRD1-3 [27]): 2.05; ELISA color development level (CRD1-2 [28]): 0.169; ELISA color development level (CRD2-4 [29]): 1.92; ELISA color development level (CRD1 [30]): 0.197; ELISA color development level (CRD3-4 [31]): 2.47; ELISA color development level [32]: 1.34; ELISA color development level (CRD2-3 [33]): 2.44 |
